Results on 1 substance are retold here after patent publication US9309320.

The test concerns the target murine CD95L, endogenous in SMA-560 tumor explants (murine) (UniProt P41047). In words: cell-based or functional assay.
Chain of UniProt P41047 (P41047 whole entry): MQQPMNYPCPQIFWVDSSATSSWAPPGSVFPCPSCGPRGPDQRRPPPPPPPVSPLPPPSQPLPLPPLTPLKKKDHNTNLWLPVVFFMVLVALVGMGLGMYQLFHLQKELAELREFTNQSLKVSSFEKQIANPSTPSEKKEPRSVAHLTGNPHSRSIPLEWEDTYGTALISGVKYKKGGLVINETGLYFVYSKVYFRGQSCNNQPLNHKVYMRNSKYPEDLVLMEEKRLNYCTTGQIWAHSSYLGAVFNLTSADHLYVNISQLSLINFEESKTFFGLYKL

Substance “MFL3, anti murine-CD95L neutralizing antibody” registered a decrease in migration of cells out of SMA-560 tumor explants into collagen of 50%.
